One protein from FireProtDB (doi:10.1021/bi982427c) can be followed below.

For this data set the following is noted: Bos taurus; pH 5.3; 5 °C; GdnHCl; Fluorescence; Sodium acetate 0.02 M; reversible: yes; whole UniProt chain shown.

B1: Acyl-CoA-binding protein wild type, P07107 (protein)
chain: MSQAEFDKAAEEVKHLKTKPADEEMLFIYSHYKQATVGDINTERPGMLDFKGKAKWDAWNELKGTSKEDAMKAYIDKVEELKKKYGI
Regarding B1, the unfolding free energy was found to be 7.89 kcal/mol.
